Experimental findings from patent US20090203602A1 (AMERICAN TYPE CULTURE COLLECTION, published 2009) are described below.

Targets include IR (h) (human, UniProt P06213 1005-1310, limits assumed); PKCβII (h) (human, UniProt P05771-2 1-673); MAPK2 (h) (human, UniProt P28482 1-360, limits assumed); PKA(h) (human, UniProt P17612 1-351); GSK3β (h) (human, UniProt P49841 1-420, limits assumed); MAPK1 (h) (human, UniProt P28482); PKBβ (h) (human, UniProt P31751 1-481, limits assumed).
What all share (assay): cell-based or functional assay
The target of the next test is T1, IKKβ(h) (human, UniProt O14920 1-756, limits assumed).
T1 sequence (looked up): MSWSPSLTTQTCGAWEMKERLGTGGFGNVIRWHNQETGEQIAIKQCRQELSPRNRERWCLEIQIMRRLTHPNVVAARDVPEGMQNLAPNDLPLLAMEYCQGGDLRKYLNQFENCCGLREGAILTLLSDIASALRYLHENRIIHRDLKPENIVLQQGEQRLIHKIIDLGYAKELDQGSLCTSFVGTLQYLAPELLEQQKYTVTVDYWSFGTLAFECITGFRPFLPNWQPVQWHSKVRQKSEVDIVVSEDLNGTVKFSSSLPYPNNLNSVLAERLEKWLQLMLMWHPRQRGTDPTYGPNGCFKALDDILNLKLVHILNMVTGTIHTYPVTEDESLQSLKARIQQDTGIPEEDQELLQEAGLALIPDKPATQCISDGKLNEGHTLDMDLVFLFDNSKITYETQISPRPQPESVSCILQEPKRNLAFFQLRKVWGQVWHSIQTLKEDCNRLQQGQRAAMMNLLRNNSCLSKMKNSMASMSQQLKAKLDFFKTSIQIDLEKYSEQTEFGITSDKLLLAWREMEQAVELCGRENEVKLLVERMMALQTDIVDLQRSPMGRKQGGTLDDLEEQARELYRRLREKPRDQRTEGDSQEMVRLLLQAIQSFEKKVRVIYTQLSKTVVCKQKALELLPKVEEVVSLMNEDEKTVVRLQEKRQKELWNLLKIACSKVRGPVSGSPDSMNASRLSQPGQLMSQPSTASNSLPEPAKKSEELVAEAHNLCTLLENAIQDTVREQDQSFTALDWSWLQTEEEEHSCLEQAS

A further test addresses T2, PDK1 (h) (human, UniProt O15530 1-556, limits assumed).
T2 sequence (looked up): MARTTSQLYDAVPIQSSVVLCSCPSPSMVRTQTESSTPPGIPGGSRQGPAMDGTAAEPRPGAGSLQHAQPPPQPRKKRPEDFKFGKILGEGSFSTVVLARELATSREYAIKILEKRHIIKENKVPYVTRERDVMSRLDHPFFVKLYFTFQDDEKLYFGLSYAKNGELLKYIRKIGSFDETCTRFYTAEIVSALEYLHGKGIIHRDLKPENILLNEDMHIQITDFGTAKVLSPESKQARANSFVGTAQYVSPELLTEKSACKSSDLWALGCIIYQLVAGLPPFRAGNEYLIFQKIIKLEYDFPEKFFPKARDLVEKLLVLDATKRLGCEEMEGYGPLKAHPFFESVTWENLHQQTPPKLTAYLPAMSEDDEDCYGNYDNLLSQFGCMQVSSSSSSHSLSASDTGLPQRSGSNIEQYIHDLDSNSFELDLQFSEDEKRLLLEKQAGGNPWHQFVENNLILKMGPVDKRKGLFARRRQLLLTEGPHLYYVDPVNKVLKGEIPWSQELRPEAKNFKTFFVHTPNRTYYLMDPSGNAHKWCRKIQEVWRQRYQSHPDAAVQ

Test [1] has as its target T3, SGK (SGK1) Serum/glucocorticoid regulated kinase (human, UniProt O00141 60-431, limits assumed).
T3 sequence (looked up): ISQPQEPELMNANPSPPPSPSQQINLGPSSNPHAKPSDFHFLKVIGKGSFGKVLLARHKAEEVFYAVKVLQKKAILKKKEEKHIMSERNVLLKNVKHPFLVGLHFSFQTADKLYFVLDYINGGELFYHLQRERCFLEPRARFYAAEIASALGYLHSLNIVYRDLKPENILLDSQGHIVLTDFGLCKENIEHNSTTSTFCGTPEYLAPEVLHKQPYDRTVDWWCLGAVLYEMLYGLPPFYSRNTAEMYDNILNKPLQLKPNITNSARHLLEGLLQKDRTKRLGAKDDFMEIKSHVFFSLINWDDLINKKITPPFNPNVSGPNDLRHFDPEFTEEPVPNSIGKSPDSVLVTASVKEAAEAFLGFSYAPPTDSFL

The target of test [2] is RPS6KB1 (p70S6K) Ribosomal protein S6 kinase, 70 kDa, polypeptide 1 (human, UniProt P23443 1-421, limits assumed).
The next test concerns the target T4, PKCζ (h) (human, UniProt Q05513 1-592, limits assumed).
T4 sequence (looked up): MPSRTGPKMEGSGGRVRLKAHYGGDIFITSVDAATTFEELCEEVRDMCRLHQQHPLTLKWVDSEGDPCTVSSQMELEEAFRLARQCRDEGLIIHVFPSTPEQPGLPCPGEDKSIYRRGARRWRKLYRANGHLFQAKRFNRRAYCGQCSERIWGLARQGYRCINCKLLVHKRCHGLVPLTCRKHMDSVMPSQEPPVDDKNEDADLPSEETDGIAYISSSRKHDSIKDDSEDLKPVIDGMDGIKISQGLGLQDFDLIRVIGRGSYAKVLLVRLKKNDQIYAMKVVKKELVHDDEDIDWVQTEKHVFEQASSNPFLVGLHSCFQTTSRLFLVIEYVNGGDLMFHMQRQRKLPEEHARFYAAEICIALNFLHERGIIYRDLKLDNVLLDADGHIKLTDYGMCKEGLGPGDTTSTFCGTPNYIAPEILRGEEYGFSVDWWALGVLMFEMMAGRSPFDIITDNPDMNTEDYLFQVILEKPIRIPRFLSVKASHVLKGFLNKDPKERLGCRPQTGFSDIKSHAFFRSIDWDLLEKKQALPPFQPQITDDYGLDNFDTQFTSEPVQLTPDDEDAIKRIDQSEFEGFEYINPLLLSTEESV

Sequence of PKCβII (h) (P05771 other isoform, or with tags, fused parts or gaps limits assumed): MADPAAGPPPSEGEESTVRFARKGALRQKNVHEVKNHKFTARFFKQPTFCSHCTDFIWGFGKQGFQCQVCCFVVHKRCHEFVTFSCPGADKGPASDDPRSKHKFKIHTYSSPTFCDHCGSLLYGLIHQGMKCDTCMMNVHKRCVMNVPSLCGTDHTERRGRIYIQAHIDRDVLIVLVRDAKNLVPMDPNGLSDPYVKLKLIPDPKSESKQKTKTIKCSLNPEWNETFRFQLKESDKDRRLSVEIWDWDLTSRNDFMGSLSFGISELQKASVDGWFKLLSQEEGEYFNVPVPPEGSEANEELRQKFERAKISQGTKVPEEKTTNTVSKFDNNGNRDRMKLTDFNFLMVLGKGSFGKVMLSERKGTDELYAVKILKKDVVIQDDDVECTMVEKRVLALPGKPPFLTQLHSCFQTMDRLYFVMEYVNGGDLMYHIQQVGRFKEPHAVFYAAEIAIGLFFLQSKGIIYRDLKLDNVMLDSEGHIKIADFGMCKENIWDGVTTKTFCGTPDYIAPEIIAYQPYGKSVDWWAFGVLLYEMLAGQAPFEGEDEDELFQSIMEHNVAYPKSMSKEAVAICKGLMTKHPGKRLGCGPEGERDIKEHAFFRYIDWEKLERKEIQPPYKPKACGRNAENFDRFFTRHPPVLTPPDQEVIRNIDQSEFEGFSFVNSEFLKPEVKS
Sequence of MAPK2 (h) (P28482 whole entry): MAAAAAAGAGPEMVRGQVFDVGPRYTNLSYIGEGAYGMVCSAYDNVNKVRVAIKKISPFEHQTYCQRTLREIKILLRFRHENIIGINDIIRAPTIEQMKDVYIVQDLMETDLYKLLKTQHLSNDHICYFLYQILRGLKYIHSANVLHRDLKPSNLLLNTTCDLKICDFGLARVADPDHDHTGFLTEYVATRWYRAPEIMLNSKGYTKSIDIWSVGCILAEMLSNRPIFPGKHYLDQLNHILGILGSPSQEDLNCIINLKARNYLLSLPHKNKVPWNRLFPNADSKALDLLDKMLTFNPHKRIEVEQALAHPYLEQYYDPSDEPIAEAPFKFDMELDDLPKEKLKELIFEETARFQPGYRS
Sequence of IR (h) (P06213 1005-1310 limits assumed): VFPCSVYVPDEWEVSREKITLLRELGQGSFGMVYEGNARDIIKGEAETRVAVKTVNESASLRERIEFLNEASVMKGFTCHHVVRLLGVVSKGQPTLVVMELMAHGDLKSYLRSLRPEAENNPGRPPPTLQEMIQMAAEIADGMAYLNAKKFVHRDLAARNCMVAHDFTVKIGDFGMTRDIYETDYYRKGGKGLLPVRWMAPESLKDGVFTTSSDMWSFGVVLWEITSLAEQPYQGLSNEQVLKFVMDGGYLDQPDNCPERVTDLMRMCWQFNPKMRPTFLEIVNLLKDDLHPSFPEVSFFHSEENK
Sequence of GSK3β (h) (P49841 whole entry): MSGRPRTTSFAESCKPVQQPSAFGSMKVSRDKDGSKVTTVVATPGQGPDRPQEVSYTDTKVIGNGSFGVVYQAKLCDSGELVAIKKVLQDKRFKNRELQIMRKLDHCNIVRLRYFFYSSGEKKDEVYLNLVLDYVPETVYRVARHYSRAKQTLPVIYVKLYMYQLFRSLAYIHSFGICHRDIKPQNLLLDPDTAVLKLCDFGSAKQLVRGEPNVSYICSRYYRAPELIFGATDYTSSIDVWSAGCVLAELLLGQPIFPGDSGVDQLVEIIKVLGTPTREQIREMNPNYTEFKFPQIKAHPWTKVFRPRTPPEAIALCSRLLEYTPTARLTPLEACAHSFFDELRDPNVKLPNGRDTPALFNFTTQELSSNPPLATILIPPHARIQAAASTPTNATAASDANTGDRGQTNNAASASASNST
Sequence of MAPK1 (h) (P28482 2-360): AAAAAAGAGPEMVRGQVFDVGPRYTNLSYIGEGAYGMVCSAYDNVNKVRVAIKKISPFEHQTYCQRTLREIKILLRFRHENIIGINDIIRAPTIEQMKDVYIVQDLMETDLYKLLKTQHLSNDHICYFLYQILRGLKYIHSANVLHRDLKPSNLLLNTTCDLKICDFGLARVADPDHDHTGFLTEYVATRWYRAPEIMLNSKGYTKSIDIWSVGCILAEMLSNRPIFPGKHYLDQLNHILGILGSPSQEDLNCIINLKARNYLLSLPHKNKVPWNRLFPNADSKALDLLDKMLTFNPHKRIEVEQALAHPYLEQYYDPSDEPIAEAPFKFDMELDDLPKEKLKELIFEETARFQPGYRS
Sequence of PKBβ (h) (P31751 whole entry): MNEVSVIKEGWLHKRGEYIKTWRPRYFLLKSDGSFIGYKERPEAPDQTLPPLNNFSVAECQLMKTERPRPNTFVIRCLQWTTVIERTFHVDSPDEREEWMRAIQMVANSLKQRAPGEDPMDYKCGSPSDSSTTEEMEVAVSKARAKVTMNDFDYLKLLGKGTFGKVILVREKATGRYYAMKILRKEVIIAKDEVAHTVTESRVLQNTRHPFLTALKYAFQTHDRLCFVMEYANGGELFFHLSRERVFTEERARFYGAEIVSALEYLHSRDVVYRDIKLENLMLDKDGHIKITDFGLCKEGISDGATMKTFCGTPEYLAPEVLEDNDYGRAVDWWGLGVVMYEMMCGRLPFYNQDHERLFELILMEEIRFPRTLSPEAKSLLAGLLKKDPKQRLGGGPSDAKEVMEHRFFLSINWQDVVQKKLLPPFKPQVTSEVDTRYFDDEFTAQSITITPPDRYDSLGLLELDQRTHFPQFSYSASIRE
Sequence of RPS6KB1 (p70S6K) Ribosomal protein S6 kinase, 70 kDa, polypeptide 1 (P23443 1-421 limits assumed): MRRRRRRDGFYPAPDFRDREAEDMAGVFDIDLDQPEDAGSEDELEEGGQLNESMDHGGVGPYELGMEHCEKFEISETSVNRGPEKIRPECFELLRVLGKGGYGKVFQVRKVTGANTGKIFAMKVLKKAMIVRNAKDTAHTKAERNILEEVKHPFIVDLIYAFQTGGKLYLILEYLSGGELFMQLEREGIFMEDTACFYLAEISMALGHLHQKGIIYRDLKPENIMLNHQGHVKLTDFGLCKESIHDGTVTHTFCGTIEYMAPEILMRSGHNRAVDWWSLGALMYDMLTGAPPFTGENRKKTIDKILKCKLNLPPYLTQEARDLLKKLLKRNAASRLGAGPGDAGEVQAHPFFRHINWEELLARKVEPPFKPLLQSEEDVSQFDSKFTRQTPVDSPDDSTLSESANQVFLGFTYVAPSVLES

Regarding SGRPPMIVWFNRPFLIAVSHTHGQTILFMAKVINPVGA [D3 peptide], the “D3 at 0.1 µM % activity” value with IR (h) came to 96 % activity; with IKKβ(h) it was 103 % activity; with PDK1 (h), 98 % activity; in the test with PKCβII (h), 101 % activity; in test [1], 74 % activity; with MAPK2 (h), 96 % activity. Besides, the “D3 at 0.1 µM % activity” value in the test with PKA(h) amounted to 115 % activity; in [2], 73 % activity; in the test with GSK3β (h), 101 % activity; in the test with PKCζ (h) it was 95 % activity; with MAPK1 (h) it was 86 % activity; with PKBβ (h), 63 % activity. The “D3 at 1 µm % activity” value with IR (h) is 103 % activity; with IKKβ(h), 71 % activity; with PDK1 (h), 108 % activity; with PKCβII (h), 103 % activity; in test [1] it was 5 % activity; in the test with MAPK2 (h) it was 96 % activity. Moreover, the “D3 at 1 µm % activity” value was found to be 105 % activity with PKA(h); 22 % activity in test [2]; 100 % activity with GSK3β (h); 42 % activity with PKCζ (h); 92 % activity in the test with MAPK1 (h); 12 % activity with PKBβ (h).
